Measurements as given in article PMC4845099.

Test system: Cc1cc(=O)oc2cc(NC(=O)CNC(=O)CNC(=O)[C@H](CCCNC(=N)N)NC(=O)[C@H](CC(C)C)NC(=O)[C@H](CCCNC(=N)N)NC(=O)OCc3ccccc3)ccc12
Test: purified protein, by the assay type
Conditions: pH 7.5

MERS-PLpro (Betacoronavirus England 1)
Km: 142 µM | kcat/Km: 18000 M⁻¹ s⁻¹
